Results: patent US20230009161A1

Molecular target: recombinant human ErbB2/HER2 Fc chimera protein (R&D Systems, cat no. 1129-ER) (human) (UniProt P04626)

IgG1^HER2 (monoclonal anti-HER2 IgG1; Trastuzumab) (antibody)
Kd: 0.72 nM
